Test results taken from publication PMC7145699, “Structural insights into target DNA recognition by R2R3-MYB transcription factors”.

Tests used:
Experiment in all cases: ITC; ITC: 150 mM NaCl, 20 mM HEPES pH 7.5, 25 C, 400 uM protein into 20 uM DNA; EMSA: 150 mM NaCl, 20 mM Tris-HCl pH 8.0, on ice 1 h, 0.1 uM DNA, 6% native PAGE 0.5x TBE
Conditions in all cases: protein: recombinant; tags: 6xHis-SUMO removed by Ulp1; blunt
WER L59A = target: T1, WER L59A (Arabidopsis, UniProt Q9SEI0 12-130, L59A)
T1 sequence: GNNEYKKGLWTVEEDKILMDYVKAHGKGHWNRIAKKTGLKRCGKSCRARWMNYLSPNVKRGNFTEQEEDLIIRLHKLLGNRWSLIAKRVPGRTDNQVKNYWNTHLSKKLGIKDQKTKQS

WER L59E [1] = target: T2, WER L59E (Arabidopsis, UniProt Q9SEI0 12-130, L59E)
T2 sequence: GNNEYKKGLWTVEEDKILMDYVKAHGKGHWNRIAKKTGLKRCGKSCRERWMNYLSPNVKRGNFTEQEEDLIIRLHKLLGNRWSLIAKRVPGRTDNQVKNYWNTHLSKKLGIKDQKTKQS

WER K55A = target: T3, WER K55A (Arabidopsis, UniProt Q9SEI0 12-130, K55A)
T3 sequence: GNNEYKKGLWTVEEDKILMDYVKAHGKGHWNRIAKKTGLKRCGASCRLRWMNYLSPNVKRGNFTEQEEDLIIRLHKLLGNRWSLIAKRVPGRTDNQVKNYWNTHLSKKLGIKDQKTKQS

WER L59E [2] = target: T2, WER L59E; remark: listed apart in the source

Row | Binder | binding result (WER L59A) | other results
1 | GL2 promoter WER target DNA (dsDNA) DNA 1: AAATTCTCCAACCGCATTTTC DNA 2: GAAAATGCGGTTGGAGAATTT | – | Kd (WER L59A): 47 nM; Kd (WER L59E [1]): 47.8 nM; binding signal (WER K55A): > 40 fold decrease in affinity vs WT
2 | G12:C11* (dsDNA) DNA 1: AAATTCTCCAAGCGCATTTTC DNA 2: GAAAATGCGCTTGGAGAATTT | binds | –
3 | A12:T11* (dsDNA) DNA 1: AAATTCTCCAAACGCATTTTC DNA 2: GAAAATGCGTTTGGAGAATTT | binds | –
4 | T12:A11* (dsDNA) DNA 1: AAATTCTCCAATCGCATTTTC DNA 2: GAAAATGCGATTGGAGAATTT | binds | –
5 | 5mC12 DNA (AA5mC) (dsDNA, 5mC at C12 of strand 1) DNA 1: AAATTCTCCAACCGCATTTTC DNA 2: GAAAATGCGGTTGGAGAATTT | binds | binding signal (WER L59E [2]): ~4 fold decrease in affinity vs N1
